What all share (assay): cryo-EM structure
Data set [1] deals with S. cerevisiae fatty acid synthase subunit FAS1/ß (S. cerevisiae (endogenous in W303 or BY4742 cells)) (UniProt P07149).
Data set [2] addresses S. pombe fatty acid synthase subunit FAS1/ß (S. pombe (endogenous in K972 cells)) (UniProt Q9UUG0).
The data set “cryo-EM structure” deals with the molecule itself.

As a reminder, the stoichiometry N is the number of molecules, sites or subunits per partner or assembly. As to “S. cerevisiae fatty acid synthase subunit FAS1/ß, P07149 1-2051”, the stoichiometry N in data set [1] was 3.

Regarding “S. pombe fatty acid synthase subunit FAS1/ß, Q9UUG0 1-2073”, the stoichiometry N in data set [2] worked out at 3.

B1: S. cerevisiae fatty acid synthase subunit FAS2/α (enzyme, UniProt P19097 1-1887, looked up)
chain: MKPEVEQELAHILLTELLAYQFASPVRWIETQDVFLKDFNTERVVEIGPSPTLAGMAQRTLKNKYESYDAALSLHREILCYSKDAKEIYYTPDPSELAAKEEPAKEEAPAPTPAASAPAPAAAAPAPVAAAAPAAAAAEIADEPVKASLLLHVLVAHKLKKSLDSIPMSKTIKDLVGGKSTVQNEILGDLGKEFGTTPEKPEETPLEELAETFQDTFSGALGKQSSSLLSRLISSKMPGGFTITVARKYLQTRWGLPSGRQDGVLLVALSNEPAARLGSEADAKAFLDSMAQKYASIVGVDLSSAASASGAAGAGAAAGAAMIDAGALEEITKDHKVLARQQLQVLARYLKMDLDNGERKFLKEKDTVAELQAQLDYLNAELGEFFVNGVATSFSRKKARTFDSSWNWAKQSLLSLYFEIIHGVLKNVDREVVSEAINIMNRSNDALIKFMEYHISNTDETKGENYQLVKTLGEQLIENCKQVLDVDPVYKDVAKPTGPKTAIDKNGNITYSEEPREKVRKLSQYVQEMALGGPITKESQPTIEEDLTRVYKAISAQADKQDISSSTRVEFEKLYSDLMKFLESSKEIDPSQTTQLAGMDVEDALDKDSTKEVASLPNKSTISKTVSSTIPRETIPFLHLRKKTPAGDWKYDRQLSSLFLDGLEKAAFNGVTFKDKYVLITGAGKGSIGAEVLQGLLQGGAKVVVTTSRFSKQVTDYYQSIYAKYGAKGSTLIVVPFNQGSKQDVEALIEFIYDTEKNGGLGWDLDAIIPFAAIPEQGIELEHIDSKSEFAHRIMLTNILRMMGCVKKQKSARGIETRPAQVILPMSPNHGTFGGDGMYSESKLSLETLFNRWHSESWANQLTVCGAIIGWTRGTGLMSANNIIAEGIEKMGVRTFSQKEMAFNLLGLLTPEVVELCQKSPVMADLNGGLQFVPELKEFTAKLRKELVETSEVRKAVSIETALEHKVVNGNSADAAYAQVEIQPRANIQLDFPELKPYKQVKQIAPAELEGLLDLERVIVVTGFAEVGPWGSARTRWEMEAFGEFSLEGCVEMAWIMGFISYHNGNLKGRPYTGWVDSKTKEPVDDKDVKAKYETSILEHSGIRLIEPELFNGYNPEKKEMIQEVIVEEDLEPFEASKETAEQFKHQHGDKVDIFEIPETGEYSVKLLKGATLYIPKALRFDRLVAGQIPTGWNAKTYGISDDIISQVDPITLFVLVSVVEAFIASGITDPYEMYKYVHVSEVGNCSGSGMGGVSALRGMFKDRFKDEPVQNDILQESFINTMSAWVNMLLISSSGPIKTPVGACATSVESVDIGVETILSGKARICIVGGYDDFQEEGSFEFGNMKATSNTLEEFEHGRTPAEMSRPATTTRNGFMEAQGAGIQIIMQADLALKMGVPIYGIVAMAATATDKIGRSVPAPGKGILTTAREHHSSVKYASPNLNMKYRKRQLVTREAQIKDWVENELEALKLEAEEIPSEDQNEFLLERTREIHNEAESQLRAAQQQWGNDFYKRDPRIAPLRGALATYGLTIDDLGVASFHGTSTKANDKNESATINEMMKHLGRSEGNPVIGVFQKFLTGHPKGAAGAWMMNGALQILNSGIIPGNRNADNVDKILEQFEYVLYPSKTLKTDGVRAVSITSFGFGQKGGQAIVVHPDYLYGAITEDRYNEYVAKVSAREKSAYKFFHNGMIYNKLFVSKEHAPYTDELEEDVYLDPLARVSKDKKSGSLTFNSKNIQSKDSYINANTIETAKMIENMTKEKVSNGGVGVDVELITSINVENDTFIERNFTPQEIEYCSAQPSVQSSFAGTWSAKEAVFKSLGVKSLGGGAALKDIEIVRVNKNAPAVELHGNAKKAAEEAGVTDVKVSISHDDLQAVAVAVSTKK
B1: in “cryo-EM structure”, the “stoichiometry N” value worked out at 6.

B2: S. pombe fatty acid synthase subunit FAS2/α (enzyme, S. pombe (endogenous in K972 cells), UniProt Q10289 1-1842, looked up)
chain: MRPEVEQELAHTLLLELLAYQFASPVRWIETQDVILSPPVSAERIVEIGPSPTLAGMAKRTLKLKYENMDAALSINREVLCYSKDAREIYYNFEDEVADEPAEAPASTSSTPKVETAAAAAPAATPAPAPAQTSAPAAALPDEPPKALEVLHTLVAQKLKKSIEEVSPQKSIKDLVGGKSTLQNEILGDLQKEFGATPEKPEEVPLDELGAIMQSSFNGSLGKQSSSLISRMISSKMPGGFNNSAVRGYLGNRYGLGPGRLESVLLLALTMEPASRLGSEADAKAWLDSVAQKYAARNGVTLSSPTAEGGSSSGSAAVIDEETFKKLTKNNTMLVTQQLELFARYLNKDLRAGQKAQVAEKVISDTLRAQLDLWNEEHGEFYASGIAPIFSPLKARVYDSDWNWARQDALKMFFDIIFGRLKHVDTEIVARCISVMNRSNPTLLEFMQYHIDHCPAEKGETYQLAKTLGQQLIDNCKSVIDAPPVFKNVNHPTAPSTTIDERGNLNYEEIPRPGVRKLTHYVTEMAKGGKLPTESKNKAKVQNDLARIYRIIKSQNKMSRSSKLQIKQLYGQVLHALSLPLPSSNDEQTPVKETIPFLHIRKKSVDGNWEFNKSLTGTYLDVLESGAKNGITYQDKYALVTGAGAGSIGAQIVEGLLAGGAKVVVTTSRFSRKVTEFYQSLYTRHGSRGSCLIVVPFNQGSKTDVEALIDYIYDEKKGLGWNLDYIVPFAAIPENGREIDGIDSRSEFAHRIMLTNILRLLGAVKSQKASRGMDTRPAQVILPLSPNHGTFGNDGLYSESKLGLETLFNRWYSESWANYLTICGAVIGWTRGTGLMAPNNIVSQGIEKYGVRTFSQSEMAFNILGLMSQKVVDLCQSEPIYANLNGGLELLPDLKDLSTRLRTELLETAEIRRAVAAETAFDHSITNGPDSEAVFQKTAIQPRANLKFNFPKLKPYEALSHLSDLRGMVDLEKVPVVTGFSEVGPWGNSRTRWDMECYGEFSLEGCVEIAWIMGLIKNFNGKGKDGKPYSGWVDTKTGEPVDDKDVKAKYEKYILEHCGIRIIEAELFHGYNPEKKELLQEVVIDHDLEPFEASKEAAHEFKLRHGDQVEIFEIPDSTEWSVRFKRGTSMLIPKALRFDRFVAGQIPLGWDPKRYGIPDDIISQVDPTTLYVLVSTVEALVASGITDPYECYKYIHVSELGNTVGSGIGGMSALRGMYKDRWTDKPVQKDILQESFINTANAWINMLLLSASGPIKTPVGACATAVESVDAAVDLITSGKARICISGGYDDFSEEGSYEFANMGATSNAAKETERGRTPQEMSRPATSTRDGFMESQGAGVQIIMQAKLAIEMGVPIHGIVGYVSTAMDKQGRSVPAPGQGILTGAREIATKTPLPIVDLKFRSRQLQRRRSQIGEWAEREYLYLEEELDAMKVQNPDLDLEAYRIERINVIKEEVVRQEKEALNTFGNEFWKRDPTIAPIRGALAVWGLTIDDLGVASFHGTSTKANEKNECDVIDSQLTHLGRSKGNAVYGVFQKYLTGHSKGGAGAWMLNGALQILRSGFVPGNRNADNIDEYLARFDRVMFPSEGIQTDGIKAASVTAFGFGQVGGQVIVIHPDYIYGVIDEATYNAYKAKTAARYKASYRYTHDALVYNNLVRAKDSPPYTKEQEKAVYLNPLARASKSKAGTWTFPATLPAESDISKTNETTRTLQSLTTSLTNSNENVGVDVELVSAISIDNETFIERNFTDTERKYCFAAPNPQASFAGRWSAKEAVFKSLGISGKGAAAPLKDIEIISSESGAPEVVLHGEAAKAATTAGVKSVSVSISHDDNQSVSVALAHK
B2: in the data set “cryo-EM structure”, the “stoichiometry N” value amounted to 6.

(Values after publication doi:10.64898/2025.12.22.696049 (bioRxiv, 2025).)
